According to paper PMC9894263:

Target: GLUT4 template complex Munc18-3:Syntaxin-4:VAMP2 (rat | not stated) (UniProt Q08850)
Assay: optical tweezers

B1: full-length cysteine-free SNAP-23 ([change], [change], [change], [change], [change]) (natural protein)
chain: MDDLSPEEIQLRAHQVTDESLESTRRILGLAIESQDAGIKTITMLDEQGEQLNRIEEGMDQINKDMREAEKTLTELNKSSGLSVSPSNRTKNFESGKNYKATWGDGGDSSPSNVVSKQPSRITNGQPQQTTGAASGGYIKRITNDAREDEMEENLTQVGSILGNLKNMALDMGNEIDAQNQQIQKITEKADTNKNRIDIANTRAKKLIDS
Work on B1 yielded a probability of SNAP-23 binding of 0.42.
